Experimental data as given in article PMC4369318.

Target: protective antigen (PA63 as LTx) in plasma or serum of subjects with inhalation anthrax (Bacillus anthracis (secreted during infection of rhesus macaques and humans))
Test: co-IP

Chain of protective antigen (PA63 as LTx) in plasma or serum of subjects with inhalation anthrax (Bacillus anthracis (secreted during infection of rhesus macaques and humans)) (P13423 30-764): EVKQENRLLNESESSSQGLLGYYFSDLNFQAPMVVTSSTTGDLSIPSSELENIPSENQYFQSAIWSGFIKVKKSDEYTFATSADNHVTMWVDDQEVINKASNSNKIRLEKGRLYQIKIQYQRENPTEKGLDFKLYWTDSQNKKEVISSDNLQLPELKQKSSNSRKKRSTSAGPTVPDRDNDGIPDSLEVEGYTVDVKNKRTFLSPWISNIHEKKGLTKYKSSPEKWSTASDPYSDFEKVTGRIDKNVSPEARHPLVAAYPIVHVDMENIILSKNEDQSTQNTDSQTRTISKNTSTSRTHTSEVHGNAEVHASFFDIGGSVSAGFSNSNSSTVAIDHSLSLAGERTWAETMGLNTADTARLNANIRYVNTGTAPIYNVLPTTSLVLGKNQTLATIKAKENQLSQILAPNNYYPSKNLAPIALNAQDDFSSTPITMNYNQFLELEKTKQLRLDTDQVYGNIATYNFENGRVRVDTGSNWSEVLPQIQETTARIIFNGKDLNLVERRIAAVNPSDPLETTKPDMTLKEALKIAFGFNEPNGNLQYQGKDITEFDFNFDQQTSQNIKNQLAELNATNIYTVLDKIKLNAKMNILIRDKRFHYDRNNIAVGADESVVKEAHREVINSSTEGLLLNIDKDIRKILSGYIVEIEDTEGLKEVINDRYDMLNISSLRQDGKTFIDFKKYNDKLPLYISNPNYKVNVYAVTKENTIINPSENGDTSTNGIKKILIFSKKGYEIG

Q: With “lethal factor (LF) in plasma or serum of subjects with inhalation anthrax (from UniProt P15917 34-809) (enzyme)” as the substance, how does the LTx as percent of total LF (animal 16N, terminal stage) read?
A: 100%

Q: What about the LTx as percent of total LF (animal 89N, terminal stage) of the same substance?
A: 60%
